Key:
[1] = Competitive ELISA screening of hybridoma supernatants on E1-OVA (55), inhibitor MDA; assay type: binding; conditions: for E1-OVA (55) Binding, OD650 nm +MDA: hybridoma supernatant in the presence of 10 μg/mL MDA; for % Inhibition by 10 μg/mL of MDA: inhibition of mAb/E1-OVA (55) binding
Procedure: (§1) Competitive ELISA was used to assess the presence of anti-Ecstasy-class antibodies in animal sera, hybridoma supernatants, and monoclonal antibody (mAb) samples as well as to estimate the level of antibody cross reactivity to amphetamine (Amph) and methamphetamine (mAmph). Antisera and antibody samples were used at the dilution giving a response of about OD=1 at 650 nm (OD650 nm) in an indirect ELISA. Hybridoma supernatants were diluted 1:2 in PBS. (±)-MDMA, (±)-MDA, (±)-amphetamine, and (±)-methamphetamine were used as inhibitors (Cerilliant Corporation, Round Rock, TX). Microtiter ELISA plates were coated and blocked as described above for indirect ELISA. The inhibitors were serially diluted in PBS. 25 μL of the diluted inhibitor was mixed with 25 μL of fixed appropriate antiserum or antibody sample dilution. The mixture was incubated over the E1-OVA (55) solid phase for 1 h. The plates were washed as described above and the bound antibodies were detected with anti-rabbit or anti-mouse IgG HRP-conjugates and TMB substrate as described above.
(§2) The supernatants were screened in a competitive ELISA for the presence of anti-ecstasy compound monoclonal antibodies (mAbs) as follows. 25 μL of the hybridoma supernatant was mixed with equal volume of PBS alone or containing 20 μg/mL inhibitor (MDA or MDMA) were incubated for 1 h in the wells of E1-OVA (55) coated ELISA plates. The plates were washed and the presence of bound mAbs were detected using goat anti-mouse IgG (Fc)-HRP conjugate and TMB substrate as described above. The level of inhibition of mAb/E1-OVA (55) binding in the presence of the inhibitor was estimated using a Percent (%) Inhibition calculated by the below formula:
(§3) [formula] • where “OD650 nm w/o Inhibitor” is the binding response of the antibody sample diluted in PBS alone (with no inhibitor), and the “OD650 nm with Inhibitor” is the binding response of the same antibody sample in the presence of 10 μg/mL of inhibitor (i.e., MDA or MDMA).

E1-OVA (55) = test: ELISA binding of hybridoma supernatant to E1-OVA (55) coated plates, without inhibitor; conditions: hybridoma supernatant mixed with PBS alone
Procedure: All ELISA steps were performed at rt. Wells of a Nunc Maxi-Sorp™ flat-bottom ELISA plates (ThermoFisher Scientific, Waltham, MA) were coated with 50 μL E1-OVA (55), E2-OVA (65), and E3-OVA (72) at a concentration of 1 μg/mL in PBS for 1 h. The plates were flicked dried and remaining binding sites were blocked with 200 μL per well of blocking solution (0.5% casein, 0.05% (v/v) Tween 20 in PBS) for one hour. Plates were washed six times with MilliQ water containing 0.05% (v/v) Tween 20 on Biotek 405 LS plate washer equipped with microplate Biostacker 3 (Biotek, Winooski, VT). 50 μL of serially diluted antibody samples (serial dilutions of serum, hybridoma supernatant, or monoclonal antibodies in PBS) were added to each well and incubated for one hour. Unbound antibodies were removed by washing as described above, and 50 μL of secondary goat anti-rabbit IgG HRP or goat anti-mouse IgG (Fc)-HRP conjugate (ThermoFisher Scientific, USA), diluted 1:3,000 in the blocking solution was added to each well for detection bound rabbit or mouse antibody, respectively. Plates were incubated for one hour, washed and 100 μL of TMB substrate (Moss, Pasadena, MD) was added for 15 min to determine bound peroxidase. Optical density (OD) of the samples at 650 nm was measured using an ELISA plate reader (Molecular Devices LLC., San Jose, CA). The titer of each serum sample was designated as the maximum dilution that yielded at least twice the absorbance of the same dilution of the nonimmune control serum.
as §2
[formula] • where “OD650 nm w/o Inhibitor” is the binding response of the antibody sample diluted in PBS alone (with no inhibitor), and the “OD650 nm with Inhibitor” is the binding response of the same antibody sample in the presence of 10 μg/mL of inhibitor (i.e., MDA or MDMA). […]

[2] = Prototype EMIT ecstasy assay, cross-reactivity with methamphetamine; assay type: biochemical; conditions: conjugate Compound 58; negative urine pool
[3] = Competitive ELISA of purified antibodies on E1-OVA (55), amphetamine and methamphetamine cross reactivity; assay type: binding
Procedure: as §1
The anti-ecstasy class mAbs were purified from clarified and filtered hybridoma culture supernatants on a recombinant Protein A Sepharose Fast Flow (GE Life Sciences, Boston USA), dialyzed against PBS containing 0.02% sodium azide and stored at 4° C. The purified mAbs were tested for MDA and MDMA reactivity as well as amphetamine (Amph) and methamphetamine (mAmph) cross reactivity in a competitive assay.

[4] = Prototype EMIT ecstasy assay, cross-reactivity with amphetamine; assay type: biochemical; conditions: conjugate Compound 58; negative urine pool
[5] = Competitive ELISA screening of hybridoma supernatants on E1-OVA (55), inhibitor MDMA; assay type: binding; conditions: for E1-OVA (55) Binding, OD650 nm +MDMA: hybridoma supernatant in the presence of 10 μg/mL MDMA; for % Inhibition by 10 μg/mL of MDMA: inhibition of mAb/E1-OVA (55) binding
Procedure: as §1, §2, §3

| Molecule | E1-OVA (55) Binding, OD650 nm +MDA [1] [OD650 nm] | % Inhibition by 10 μg/mL of MDA [1] [%] | E1-OVA (55) Binding, OD650 nm w/o inhib (E1-OVA (55)) [OD650 nm] | Concentrations (μg/mL) of Structurally Related Compounds Equivalent to 500 ng/mL MDMA Cutoffs, (+/−) mAmph [2] [µg/mL] | cross reactivity in the presence of 1,000 ng/ml of Amph or mAmph [3] | Concentrations (μg/mL) of Structurally Related Compounds Equivalent to 500 ng/mL MDMA Cutoffs, (+/−) Amph [4] [µg/mL] | E1-OVA (55) Binding, OD650 nm +MDMA [5] [OD650 nm] | % Inhibition by 10 μg/mL of MDMA [5] [%] |
| --- | --- | --- | --- | --- | --- | --- | --- | --- |
| 178K 1F4 mAb: mouse monoclonal antibody raised against E1-KLH (56); IgG2b, κ; heavy chain SEQ ID NO 85, light chain SEQ ID NO 109 (antibody) heavy: MNFGLSLIFLALILKGVQCEVQLVESGGDLVRPGGSLKLSCAASGFIFTNYVMSWVRQTPDKRLEWVATINSVGRYTYYTDSVKGRLTISRNNAKNTLYLQMNSLKSEDTAIYYCAGGNNLDFWGQGTTLTVSSAKTTPPSVYPLAPGCGDTTGSSVTLGCLVKGYFPESVTVTWNSGSLSSSVHTFPALLQSGLYTMSSSVTVPSSTWLSQTVTCSVAHPASSTTVDKKLEPSGPISTIKPCPPCKECHKCPAPNLEGGPSVFIFPPNIKDVLMISLTPKVTCVVVDVSEDDPDVQISWFVNNVEVHTAQTQTHREDYNSTIRVVSALPIQHQDWMSGKEFKCKVNNKDLPSPIERTISKIKGLVRAPQVYILPPPAEQLSRKDVSLTCLVVGFNPGDISVEWTSNGHTEENYKDTAPILDSDGSYFIYSKLNMKTSKWEKTDSFSCNVRHEGLKNNYLKKTISRSPGK light: MRFSAQLLGLLVLWIPGSTADIVMTQAAFSNPVTLGTSASISCRSSKSLLHSNGITYLYWYLQKPGQSPQLLIYQMSNLASGVPDRFSSSGSGTDFTLRISRVEAEDVGVYYCGQDLELPYSFGGGTKLEIKRADAAPTVSIFPPSSEQLTSGGASVVCFLNNFYPKDINVKWKIDGSERQNGVLNSWTDQDSKDSTYSMSSTLTLTKDEYERHNSYTCEATHKTSTSPIVKSFNRNEC | 0.254 | 93 | 3.012 | 30 | do not show any significant cross reactivity | 30 | 0.359 | 88 |
| 178K 1E11 mAb: mouse monoclonal antibody raised against E1-KLH (56); IgG2b, κ; heavy chain SEQ ID NO 183, light chain SEQ ID NO 185 (antibody) heavy: MNFGLSLIFLALILKGVQCEVQLVESGGDFVKPGGSLKLSCAASGFTFSNYVMSWVRQTPDKRLEWVATINSGGRYTYYPDSVKGRFTISRDNAKNTLYLQMNSLKSDDTAIYYCSGGNYLDYWGQGTTLTVSSAKTTPPSVYPLAPGCGDTTGSSVTLGCLVKGYFPESVTVTWNSGSLSSSVHTFPALLQSGLYTMSSSVTVPSSTWLSQTVTCSVAHPASSTTVDKKLEPSGPISTIKPCPPCKECHKCPAPNLEGGPSVFIFPPNIKDVLMISLTPKVTCVVVDVSEDDPDVQISWFVNNVEVHTAQTQTHREDYNSTIRVVSALPIQHQDWMSGKEFKCKVNNKDLPSPIERTISKIKGLVRAPQVYILPPPAEQLSRKDVSLTCLVVGFNPGDISVEWTSNGHTEENYKDTAPILDSDGSYFIYSKLNMKTSKWEKTDSFSCNVRHEGLKNNYLKKTISRSPGK light: MRFSAQLLGLLVLWIPGSTADIVMTQAAFSNPVTLGTSASISCRSSKSLLQRNGITYLHWYLQKPGQSPQLLIYRMSNLASGVPERFSSSGSGTDFTLRISRVEAEDVGVYYCGQDLELPYTFGGGTKLEIKRADAAPTVSIFPPSSEQLTSGGASVVCFLNNFYPKDINVKWKIDGSERQNGVLNSWTDQDSKDSTYSMSSTLTLTKDEYERHNSYTCEATHKTSTSPIVKSFNRNEC | 0.316 | 91 | 3.390 |  | do not show any significant cross reactivity |  | 0.301 | 91 |

— patent US20260234121A1, “DERIVATIVES, IMMUNOGENS, AND ANTIBODIES AND USE OF THE SAME IN DETECTION OF ECSTASY-CLASS COMPOUNDS” (Siemens Healthcare Diagnostics Inc., priority 2023, published 2026)
